What was measured:
[1] = biological target: T1, human CD33-C2-his (human, UniProt P20138 136-260); test: ELISA on coated human CD33-C2-his
T1 construct: expressed in HEK293E; also called hCD33-C2-his; human CD33 protein C2-domain; not shown: His tag
Excerpt: Plates were coated with human CD33-V-his (membrane distal end) and human CD33-C2-his (membrane proximal end), respectively, according to the ELISA method in Example 8. The VHH humanized antibodies were classified based on the membrane distal end and the membrane proximal end, as shown in FIGS. 20A-20J and Table 44, which allowed the classification of the VHH humanized antibodies into the following classes: […]

[2] = biological target: T2, human CD33-His (extracellular domain Asp 18-His 259) (human, UniProt P20138 18-259); test: competitive ELISA vs coated SGN-33 3ug/mL; soluble 25ug/ml
T2 construct: range 18-259; bought protein; also called hCD33-his; human CD33 protein; not shown: His tag

[3] = biological target: T2, human CD33-His (extracellular domain …); test: competitive ELISA vs coated C33B904 2ug/mL; soluble 25ug/ml
Protocol: VHH antibodies and control antibodies with known epitopes were subjected to epitope classification with competitive ELISA. ELISA plates were coated with 2 μg/mL antibodies according to the method in Example 5.1; the human CD33-his protein was subjected to a gradient dilution from 30 μg/mL, and EC80 values (Tables 26-27) were calculated. ELISA plates were coated with 2 μg/mL antibodies; after 25 µg/mL of antibodies to be tested were added, a human CD33-his protein having an EC80 concentration corresponding to each of the antibodies to be tested was then added for incubation for 2 h. The plates were washed 5 times with PBS, then HRP-labeled anti-His antibodies (purchased from GenScript, Cat. No. A00612) were added for incubation for 1 h, and the plates were washed 5 times. A TMB substrate was added at 50 μL/well and incubated at room temperature for 10 min, then a stop solution (1.0 M HCl) was added at 50 μL/well. OD_{450 nm} values were read using an ELISA plate reader (Insight, purchased from PerkinElmer), and the competition rate between the antibodies was calculated according to the OD_{450 nm} values using a formula. The results are shown in FIGS. 12A-12B, the higher the value of the competition rate, the closer the epitopes to which two antibodies bind.

[4] = biological target: T3, human CD33-his protein (human, UniProt P20138 18-259); test: SPR (Biacore), antibody captured on Protein A chip, human CD33-his analyte
T3 construct: range 18-259; bought protein; also called hCD33-his; recombinant human CD33-his; not shown: His tag
Protocol: The sample and running buffer was HBS-EP+ (10 mM HEPES, 150 mM NaCl, 3 mM EDTA, 0.05% surfactant P20) (GE Healthcare; BR-1006-69). The flow cell was set at 25° C. The sample block was set at 16° C. Both were pretreated with the running buffer. In each cycle, first, the antibody to be tested was captured using the Protein A chip, and then a single concentration of CD33 antigen protein was injected. The association and dissociation processes of the antibody with the antigen protein were recorded, and finally, the chip was regenerated using Glycine pH 1.5 (GE Healthcare; BR-1003-54). The association was determined by injecting different concentrations of recombinant human CD33-his in the solution and maintaining for 240 s, wherein the flow rate was 30 μL/min, and the protein was diluted in a 1:1 dilution ratio from 200 nM to obtain 5 concentrations in total. The dissociation phase was monitored for up to 600 s and triggered by switching from the sample solution to the running buffer. The surface was regenerated by washing with 10 mM glycine solution (pH 1.5) at a flow rate of 30 μL/min for 30 s. The difference in bulk refractive index was corrected by subtracting the responses obtained from the […]. Blank injections were also subtracted (=double reference). To calculate the apparent KD and other kinetic parameters, the Langmuir 1:1 model was used.

[5] = biological target: T3, human CD33-his protein; test: competition ELISA, coated human CD33-his, vs Biotin-C33B904 at EC80; antibody 500 nM
Protocol: (§1) ELISA plates were coated with 2 μg/mL human CD33-his protein according to the method in Example 5.1; the Biotin-C331B904 antibody was subjected to a gradient dilution from 15 μg/mL, and EC80 values (0.18 μg/mL) were calculated. ELISA plates were coated with 2 μg/mL human CD33-his protein; starting from 40 μg/mL, the VHH antibodies to be tested were diluted in a 1:2 dilution ratio to obtain seven concentrations and added to the ELISA plates, and then Biotin-C331904 antibodies with the EC80 concentrations were added for incubation for 2 h. The plates were washed 5 times with PBS and then […] (purchased from Sigma, Cat. No. S2438) were added for incubation for 1 h, and the plates were washed 5 times. A TMB substrate was added at 50 μL/well and incubated at room temperature for 10 min, then a stop solution (1.0 M HCl) was added at 50 μL/well. OD_{450 nm} values were read using an ELISA plate reader (Insight, purchased from PerkinElmer). Then, analysis was performed by software (GraphPad Prism8), and data were fitted for curve plotting. The results are shown in FIGS. 13A-13B and Tables 28 and 29.

[6] = biological target: T3, human CD33-his protein; test: competition ELISA, coated human CD33-his, vs Biotin-C33B904 at EC80; antibody 0 nM (no competitor)
Protocol: as §1

T3 sequence (P20138 18-259 limits assumed): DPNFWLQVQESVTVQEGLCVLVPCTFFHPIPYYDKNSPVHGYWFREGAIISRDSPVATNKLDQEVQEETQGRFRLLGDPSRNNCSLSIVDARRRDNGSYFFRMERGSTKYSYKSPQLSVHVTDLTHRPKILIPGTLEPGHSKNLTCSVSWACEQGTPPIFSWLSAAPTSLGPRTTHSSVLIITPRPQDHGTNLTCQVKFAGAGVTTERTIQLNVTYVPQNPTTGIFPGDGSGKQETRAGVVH
T2 sequence (P20138 18-259 limits assumed): as above
T1 sequence (P20138 other isoform, or with tags, fused parts or gaps limits assumed): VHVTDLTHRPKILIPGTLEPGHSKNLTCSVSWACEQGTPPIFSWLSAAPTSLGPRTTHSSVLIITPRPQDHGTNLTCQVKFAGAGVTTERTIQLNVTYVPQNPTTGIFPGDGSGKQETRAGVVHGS

B1: C33B904 hIgG1 (antibody, V domains shown)
VH: EVQLVESGGGLVQPGRSLRLSCAASGFTFDDYAMHWVRQAPGKGLEWVSGIGWSGGSIVYADSVKGRFTISRDNAKNSLYLQMNSLRAEDTALYYCAKDSPYGDFFDYWGQGTLVTVSS
VL: DIVMTQSPDSLAVSLGERATINCKSSQTVFYSSNNKNYLAWYQQKPGQPPKLLISWASTRKSGVPDRFSGSGSGTDFTLTVSSLQAEDVAVYYCQHYYSTPYTFGQGTKLEIKR
notes: intact human IgG1; variable regions from US20190382481A1; also called C33B3904; C331B904
With B1 the “EC50 (read off the curve)” value [1] was ~0.1 nM, the inhibition rate [2] was 14% and the inhibition rate [3] was 88%.

B2: C33B904 (antibody, human IgG1, kappa, V domains shown)
VH: EVQLVESGGGLVQPGRSLRLSCAASGFTFDDYAMHWVRQAPGKGLEWVSGIGWSGGSIVYADSVKGRFTISRDNAKNSLYLQMNSLRAEDTALYYCAKDSPYGDFFDYWGQGTLVTVSS
VL: DIVMTQSPDSLAVSLGERATINCKSSQTVFYSSNNKNYLAWYQQKPGQPPKLLISWASTRKSGVPDRFSGSGSGTDFTLTVSSLQAEDVAVYYCQHYYSTPYTFGQGTKLEIKR
notes: control antibody, intact human IgG1 form; variable regions from US20190382481A1; also called C33B904 hIgG1; C331B904
B2 was tested, and the Kd [4] was 0.079 nM, the koff [4] was 6.54e-05 s⁻¹ and the kon [4] was 828000 M⁻¹ s⁻¹. The “OD450 (Biotin-C33B904 signal)” value [5] was 0.08 and the “OD450 (Biotin-C33B904 signal)” value [6] was 2.35.
